# Laboratory results from publication PMC12624782 (The Journal of Biological Chemistry, 2025).
# Assays:
# [1] = biological target: T1, TaGST-10 (Triticum aestivum, UniProt A0A3B5XZG4); test: LC-MS/MS of DON-13-GSH formation, […] DON, apparent specific activity; assay type: biochemical; set-up: gene LOC123049460; N-His6-SUMO-TaGST-10, IMAC and size-exclusion purified
# T1 sequence (A0A3B5XZG4 1-234): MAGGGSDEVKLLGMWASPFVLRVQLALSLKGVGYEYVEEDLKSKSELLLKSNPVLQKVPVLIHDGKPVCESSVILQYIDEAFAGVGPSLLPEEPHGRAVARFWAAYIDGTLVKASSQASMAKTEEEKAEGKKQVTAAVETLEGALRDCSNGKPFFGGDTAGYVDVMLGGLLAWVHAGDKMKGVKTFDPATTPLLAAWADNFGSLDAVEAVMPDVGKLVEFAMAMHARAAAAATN
# [2] = biological target: T1, TaGST-10; test: co-crystal structure, […] Å; assay type: binding; set-up: gene LOC123049460; TaGST-10 after TEV removal of the N-His6-MBP tag; dimer in the asymmetric unit
# [3] = substrate: N[C@@H](CCC(=O)N[C@@H](CS)C(=O)NCC(=O)O)C(=O)O; test: purified protein; assay type: biochemical, Triticum aestivum; details: G-site in the N-terminal domain; pH 6.5; 20.0 °C
# [4] = substrate: S=C=NCCc1ccccc1; test: purified protein; assay type: biochemical, Triticum aestivum; details: GSH; pH 6.5; 20.0 °C
# [5] = substrate: C=C(CC)C(=O)c1ccc(OCC(=O)O)c(Cl)c1Cl; test: purified protein; details: GSH; pH 6.5; 20.0 °C
molecule,measurement,setting,value
"CC1=C[C@H]2O[C@@H]3[C@H](O)C[C@](C)([C@@]2(CO)[C@H](O)C1=O)[C@]31CO1 [DON, deoxynivalenol]","LC-MS/MS of DON-13-GSH formation, 5 mM DON, apparent specific activity",[1],6.3 10^−5 ± 0.4 10^−5
CC1=C[C@H]2O[C@@H]3[C@H](O)C[C@](C)([C@]24CO[C@@]1(O)[C@H]4O)[C@]3(O)CSC[C@H](NC(=O)CC[C@H](N)C(=O)O)C(=O)NCC(=O)O (mixture of isomers) [DON-13-GSH],"co-crystal structure, 2.3 Å",[2],TaGST-10 crystallized as a dimer in the asymmetric unit and contained a molecule of DON-13-GSH in each active site.
"TaGST-10 (Triticum aestivum) (protein, N-His6-MBP-TaGST-10 (full-length fusion)) MAGGGSDEVKLLGMWASPFVLRVQLALSLKGVGYEYVEEDLKSKSELLLKSNPVLQKVPVLIHDGKPVCESSVILQYIDEAFAGVGPSLLPEEPHGRAVARFWAAYIDGTLVKASSQASMAKTEEEKAEGKKQVTAAVETLEGALRDCSNGKPFFGGDTAGYVDVMLGGLLAWVHAGDKMKGVKTFDPATTPLLAAWADNFGSLDAVEAVMPDVGKLVEFAMAMHARAAAAATN",K0.5,[3],0.46 ± 0.01 mM
same,K0.5,[4],0.041 ± 0.004 mM
same,kcat,[4],2 s⁻¹
same,kcat/Km,[4],47000 M⁻¹ s⁻¹
same,K0.5,[5],0.023 ± 0.003 mM
same,kcat,[5],0.13 s⁻¹
same,kcat/Km,[5],5500 M⁻¹ s⁻¹
